Measured values reported in patent publication US20080207501A1.

Molecular target: T1, amylin receptor (nucleus accumbens membranes prepared from rat brain) (rat), P32214
T1 chain 1: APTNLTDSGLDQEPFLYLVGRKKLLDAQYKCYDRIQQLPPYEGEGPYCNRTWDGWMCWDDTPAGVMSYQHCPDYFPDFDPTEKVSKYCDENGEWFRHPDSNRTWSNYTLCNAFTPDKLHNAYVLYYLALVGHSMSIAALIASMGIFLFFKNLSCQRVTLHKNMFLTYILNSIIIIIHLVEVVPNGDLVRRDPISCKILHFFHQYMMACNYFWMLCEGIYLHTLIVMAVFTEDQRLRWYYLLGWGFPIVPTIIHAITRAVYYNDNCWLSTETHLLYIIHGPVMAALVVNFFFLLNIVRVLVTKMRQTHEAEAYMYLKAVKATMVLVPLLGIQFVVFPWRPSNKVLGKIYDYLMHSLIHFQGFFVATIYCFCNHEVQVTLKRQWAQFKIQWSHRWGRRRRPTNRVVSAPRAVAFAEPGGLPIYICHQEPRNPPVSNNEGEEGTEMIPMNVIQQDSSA
T1 chain 2: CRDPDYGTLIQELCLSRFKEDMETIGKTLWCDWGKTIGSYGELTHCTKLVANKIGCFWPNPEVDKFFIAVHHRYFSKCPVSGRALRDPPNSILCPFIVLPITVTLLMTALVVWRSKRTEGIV
Assay: radioligand displacement, 125I-rat amylin, rat nucleus accumbens membranes

B1: r/h Calcitonin (peptide)
chain: CGNLSTCMLGTYTQDFNKFHTFPQTAIGVGAP
modifications: not checked
IC50: 100 nM
